Results taken from publication PMC7073468, “Small RNA‐binding protein RapZ mediates cell envelope precursor sensing and signaling in Escherichia coli” (The EMBO Journal, 2020).

Columns and labels:
RapZ = RapZ (Escherichia coli, UniProt P0A894); experiment: SPR (Biacore, single-cycle kinetics); also co-purification detected by HILIC-MS/MS; assay type: binding
[1] = target: T1, Strep-RapZ (N-terminally Strep-tagged RapZ) (Escherichia coli, UniProt P0A894 1-284); experiment: SPR; Biacore T200, 25°C; Strep-RapZ (200–400 RU) captured on a CM5 chip coated with Strep-Tactin XT; QseE-His10 or QseF-His10 injected at 10 nM, 50 nM, 2 × 100 nM, 250 nM, 500 nM and 1,000 nM, multicycle; HBS-EP buffer (10 mM HEPES pH 7.4, 150 mM NaCl, 3 mM EDTA, 0.005% P20); overall affinities; conditions: both partners purified
T1 construct: it is not measured here; also called YhbJ; source: purified recombinant protein (procedure in the Appendix Supplementary Methods); not shown: Strep, N-terminal, kept
T1 sequence (looked up): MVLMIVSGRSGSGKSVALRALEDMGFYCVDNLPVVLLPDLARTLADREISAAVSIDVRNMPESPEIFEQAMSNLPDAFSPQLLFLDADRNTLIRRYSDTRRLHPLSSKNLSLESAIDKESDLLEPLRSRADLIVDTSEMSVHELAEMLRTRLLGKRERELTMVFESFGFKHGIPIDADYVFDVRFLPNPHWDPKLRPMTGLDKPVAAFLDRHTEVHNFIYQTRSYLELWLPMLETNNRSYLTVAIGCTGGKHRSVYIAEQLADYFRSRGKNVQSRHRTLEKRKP

Molecule: N[C@H]1C(O)O[C@H](COP(=O)(O)O)[C@@H](O)[C@@H]1O (stereo partly shown) [GlcN6P]
- Kd (RapZ): 186 nM

B1: QseE’-His10 (soluble cytoplasmic C-terminal part of kinase QseE, aa 196–475, with the HAMP and transmitter domains) (domain or fragment, Escherichia coli, UniProt P52101 196-475, looked up)
chain: MIIGPVKNIERMINRLGEGRSLGNSVSFSGPSELRSVGQRILWLSERLSWLESQRHQFLRHLSHELKTPLASMREGTELLADQVVGPLTPEQKEVVSILDSSSRNLQKLIEQLLDYNRKQADSAVELENVELAPLVETVVSAHSLPARAKMMHTDVDLKATACLAEPMLLMSVLDNLYSNAVHYGAESGNICLRSSLHGARVYIDVINTGTPIPQEERAMIFEPFFQGSHQRKGAVKGSGLGLSIARDCIRRMQGELYLVDESGQDVCFRIELPSSKNTK
notes: Histidine kinase QseE (a.k.a. GlrK, YfhK) of Escherichia coli, cytoplasmic part aa 196-475 (HAMP and transmitter domains); also called His10-tagged QseE’; GlrK; source: purified recombinant protein (procedure in the Appendix Supplementary Methods)
- Kd [1]: 12 µM
- koff [1]: 0.054 s⁻¹
- kon [1]: 4500 M⁻¹ s⁻¹
